# Measurements: the supplement of paper PMC9732359
# ± gives the uncertainty stated by the source.
# Assay: protein stability index of a GFP-peptide fusion (yeast GPS) (PSI 1-4); higher = more stable; sorted into four equal gates, so the index is relative within each strain
# Settings: doa10∆
# Summary of the method: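 Tiled yeast protein peptides of 17 residues were each joined downstream of GFP, on plasmids that also express Cherry. The pooled library was maintained in yeast, and mid-log cultures in leucine-free medium were sorted into four equal gates on the GFP/Cherry ratio. Plasmids from every gate were amplified by PCR and sequenced on Illumina, with barcodes linking reads to strains. The protein stability index of a peptide is its gate-number-weighted read frequency summed over the gates.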
row,Sequence,protein stability index
1,VNECIAQSHQRFNAKVS [CDC53],2.15 ± 0.039
2,VNEMNDQLAQELKDLET [NNF1],2.9 ± 0.23
3,VNGLLQVLMDINTLNGG [GAL11],2.98 ± 0.079
4,VNQEFIFEAISLSDELN [YJL039C/NUP192],2.71 ± 0.071
5,VNSIALFVGTDRQLHEI [RPN14],2.43 ± 0.079
6,VPKEGLFYFDSSFRPCP [BRR2],3.17 ± 0.068
7,VPKLESSRTKFWSFLDS [YJL039C/NUP192],1.61 ± 0.29
8,VPLAMGIVSVSDPQMKV [RPN1],1.39 ± 0.041
9,VPNSSDQAELPNNASSH [SNF2],2.26 ± 0.13
10,VPPILIILPLDNATLTE [SSN2],2.97 ± 0.1
11,VPSHVPQVLINRDPVKH [SIR2],2.52 ± 0.13
12,VPSYIHVEKERASTELS [YIL149C/MLP2],2.33 ± 0.1
13,VPTGGASSAAAGAAGAA [RPP2B],2.88 ± 0.11
14,VPVRDGVTIEFSTNVKD [RPL9A],1.35 ± 0.27
15,VQASVTSSTHERKSKTY [RET1],2.6 ± 0.066
16,VQCHGSFATATCVTCHW [SIR2],2.28 ± 0.047
17,VQLPILKIIYTGLCSFD [YJL039C/NUP192],1.41 ± 0.055
18,VQRTMLELLNQLDGFSS [RPT5],2.99 ± 0.078
19,VQSQVDSSSVSEDSAVF [FAS1],3.11 ± 0.072
20,VQYLSGAHGNSDPVCLF [POP3],2.96 ± 0.12
21,VRHGRAGATTSRFIPLK [RPS15],2.62 ± 0.076
22,VRIHSIQVLTEASSLGY [IRR1],1.49 ± 0.22
23,VRLPTKVLKISTRKTPN [RPS20],1.83 ± 0.087
24,VRNKSYPVYTRLRTLCR [DIS3],2.65 ± 0.08

row,Sequence,protein stability index
1,VRNVKGPVRENDILVLM [RPS28A],3.24 ± 0.11
2,VRPFGVSTLIAGFDPRD [PRE6],1.5 ± 0.15
3,VRSTIKFQLKKVLCLAV [RPL1A],1.45 ± 0.051
4,VRTSATFRLPKTLKLAR [RPL25],2.84 ± 0.1
5,VSEGTRAVTKYSSSTQA [HTB1],2.99 ± 0.066
6,VSHHATTFTHCEIHPSM [RPB2],3.12 ± 0.076
7,VSIDIEEPQLDLLDDVL [MTW1],2.62 ± 0.094
8,VSKSEPKFFLGEENRVR [QCR2],3.42 ± 0.097
9,VSMVKRAIDSLIQKGYL [CDC53],1.74 ± 0.053
10,VSNILSAFKFIHTQLSE [YJL039C/NUP192],2.19 ± 0.061
11,VSNSGAQDEEIHKQIVI [UBP6],3.17 ± 0.16
12,VSPNAAPRQEISEEETT [YAR002W/NUP60],3.19 ± 0.1
13,VSQMVAVVGQQIISGNR [RPO31],3.2 ± 0.14
14,VSTEGNVPQTLAPVPYE [RPL21A],3.19 ± 0.072
15,VSVEGVNVEKFNVEYFA [RPL6A],2.91 ± 0.069
16,VSYMMPSLYRLLNILIT [SRB8],1.22 ± 0.12
17,VTGFAEVGPWGSARTRW [FAS2],2.24 ± 0.079
18,VTHDCYRVTLESILQMN [RPC34],3.29 ± 0.28
19,VTLNKYCSGNIYDFHKM [YJL039C/NUP192],2.7 ± 0.044
20,VTNIRRIIQDNISPRLV [RRP46],2.3 ± 0.09
21,VTNNVEEGEFIIDLYSL [TAF14],3.38 ± 0.085
22,VTQQKRSLDENRLEIKY [SMC1],2.06 ± 0.064
23,VTRGISVLKDSDDKTRQ [PRE1],3.16 ± 0.078
24,VTSSFFYRGNYTDFENT [FAS1],2.05 ± 0.058

row,Sequence,protein stability index
1,VVEDKPLLSKKERLVRD [SMB1],1.14 ± 0.063
2,VVGRTTRSNPPFKRKML [REC8],2.59 ± 0.06
3,VWYGLSDGEDGHIPWHI [SSN2],3.05 ± 0.08
4,VYNNSKDEYLAQLDGRI [NSL1],3.33 ± 0.073
5,WAADSVSSRVRGYTCQF [FAS1],2.56 ± 0.29
6,WADNYERKEQEEKEKEQ [BRN1],3.47 ± 0.21
7,WAGKRLWDQDIAIAGTG [COR1],3.25 ± 0.1
8,WGAETDELSMIMEHFSQ [RPS12],2.93 ± 0.11
9,WGTLQSVSPQMNAILTD [SMD1],2.83 ± 0.11
10,WLETYSENRDKFLQEFI [IRR1],2.97 ± 0.096
11,WLNFLRGTIPLLERYIG [PRP8],1.41 ± 0.068
12,WLVVPTIYNLQHHVTDA [YML031W/NDC1],1.38 ± 0.03
13,WNLEKWREIIEKVRDYE [IRR1],3.06 ± 0.12
14,WQELARSTDEFNGAQLK [RPT5],2.52 ± 0.16
15,WRKSDRELTKNILWRIA [SIR4],2.91 ± 0.12
16,WRLLFIDKFIMVVQKYK [GRR1],2.07 ± 0.054
17,WRVREASTSALLQLIQS [ECM29],1.16 ± 0.13
18,WTDPNLKSSLADVLSIL [RPN1],2.94 ± 0.15
19,WTIPHKKWNDLKNKNFK [SIR2],3.22 ± 0.14
20,WTVLFRKHHKKGITEEV [RPL24A],3.08 ± 0.12
21,WVAPQESSHEQEEFVQF [ECM29],3.26 ± 0.15
22,WVFSYLRWFELKPKLYY [SIR3],1.93 ± 0.081
23,YARADTHFLLNIYDQLR [RRP6],2.54 ± 0.045
24,YDKKKRVVVPQALRVLR [RPL16B],1.82 ± 0.043

# Same assay, conditions: pdr5∆
row,Sequence,protein stability index
1,VNECIAQSHQRFNAKVS [CDC53],2.6 ± 0.043
2,VNGLLQVLMDINTLNGG [GAL11],3.03 ± 0.077
3,VNQEFIFEAISLSDELN [YJL039C/NUP192],2.65 ± 0.067
4,VNSIALFVGTDRQLHEI [RPN14],2.46 ± 0.065
5,VPKEGLFYFDSSFRPCP [BRR2],3.28 ± 0.058
6,VPLAMGIVSVSDPQMKV [RPN1],1.63 ± 0.054
7,VPNSSDQAELPNNASSH [SNF2],2.85 ± 0.21
8,VPPILIILPLDNATLTE [SSN2],2.71 ± 0.11
9,VPSHVPQVLINRDPVKH [SIR2],3 ± 0.088
10,VPSYIHVEKERASTELS [YIL149C/MLP2],2.46 ± 0.069
11,VPTGGASSAAAGAAGAA [RPP2B],3.04 ± 0.083
12,VPVRDGVTIEFSTNVKD [RPL9A],1.58 ± 0.26
13,VQASVTSSTHERKSKTY [RET1],2.78 ± 0.079
14,VQCHGSFATATCVTCHW [SIR2],2.55 ± 0.046
15,VQDKDTLSNAERAKNVN [GAL11],2.71 ± 0.23
16,VQLPILKIIYTGLCSFD [YJL039C/NUP192],1.76 ± 0.043
17,VQRTMLELLNQLDGFSS [RPT5],2.88 ± 0.072
18,VQSQVDSSSVSEDSAVF [FAS1],3.33 ± 0.08
19,VQYLSGAHGNSDPVCLF [POP3],2.83 ± 0.18
20,VRHGRAGATTSRFIPLK [RPS15],2.56 ± 0.062
21,VRIHSIQVLTEASSLGY [IRR1],1.64 ± 0.12
22,VRLPTKVLKISTRKTPN [RPS20],2.22 ± 0.089
23,VRNKSYPVYTRLRTLCR [DIS3],2.83 ± 0.072

row,Sequence,protein stability index
1,VRNVKGPVRENDILVLM [RPS28A],3.04 ± 0.1
2,VRPFGVSTLIAGFDPRD [PRE6],1.7 ± 0.13
3,VRSTIKFQLKKVLCLAV [RPL1A],1.35 ± 0.053
4,VRTSATFRLPKTLKLAR [RPL25],2.35 ± 0.12
5,VSEGTRAVTKYSSSTQA [HTB1],3.15 ± 0.1
6,VSHHATTFTHCEIHPSM [RPB2],3.22 ± 0.069
7,VSIDIEEPQLDLLDDVL [MTW1],3.09 ± 0.067
8,VSKSEPKFFLGEENRVR [QCR2],3.18 ± 0.077
9,VSMVKRAIDSLIQKGYL [CDC53],1.82 ± 0.058
10,VSNILSAFKFIHTQLSE [YJL039C/NUP192],1.92 ± 0.048
11,VSNSGAQDEEIHKQIVI [UBP6],3.5 ± 0.14
12,VSPNAAPRQEISEEETT [YAR002W/NUP60],2.88 ± 0.077
13,VSQMVAVVGQQIISGNR [RPO31],3.14 ± 0.15
14,VSTEGNVPQTLAPVPYE [RPL21A],3.02 ± 0.085
15,VSVEGVNVEKFNVEYFA [RPL6A],3.21 ± 0.067
16,VSYMMPSLYRLLNILIT [SRB8],1.21 ± 0.07
17,VTGFAEVGPWGSARTRW [FAS2],3.03 ± 0.086
18,VTHDCYRVTLESILQMN [RPC34],2.39 ± 0.27
19,VTLNKYCSGNIYDFHKM [YJL039C/NUP192],2.81 ± 0.051
20,VTNIRRIIQDNISPRLV [RRP46],2.63 ± 0.1
21,VTNNVEEGEFIIDLYSL [TAF14],3.48 ± 0.083
22,VTQQKRSLDENRLEIKY [SMC1],2.15 ± 0.096
23,VTRGISVLKDSDDKTRQ [PRE1],3.28 ± 0.066

row,Sequence,protein stability index
1,VTSSFFYRGNYTDFENT [FAS1],2.4 ± 0.049
2,VVEDKPLLSKKERLVRD [SMB1],1.2 ± 0.043
3,VVGLGERVSPTDIEEGM [RPT1],3.33 ± 0.24
4,VVGRTTRSNPPFKRKML [REC8],2.77 ± 0.059
5,VWYGLSDGEDGHIPWHI [SSN2],3.25 ± 0.091
6,VYNNSKDEYLAQLDGRI [NSL1],3.26 ± 0.049
7,WAADSVSSRVRGYTCQF [FAS1],2.62 ± 0.15
8,WAGKRLWDQDIAIAGTG [COR1],3.11 ± 0.12
9,WGAETDELSMIMEHFSQ [RPS12],3.12 ± 0.17
10,WGTLQSVSPQMNAILTD [SMD1],2.66 ± 0.1
11,WLETYSENRDKFLQEFI [IRR1],1.93 ± 0.11
12,WLNFLRGTIPLLERYIG [PRP8],1.23 ± 0.046
13,WLVVPTIYNLQHHVTDA [YML031W/NDC1],1.62 ± 0.033
14,WNLEKWREIIEKVRDYE [IRR1],3.41 ± 0.15
15,WQELARSTDEFNGAQLK [RPT5],2.73 ± 0.2
16,WRKSDRELTKNILWRIA [SIR4],1.82 ± 0.088
17,WRLLFIDKFIMVVQKYK [GRR1],1.79 ± 0.052
18,WRVREASTSALLQLIQS [ECM29],1.41 ± 0.12
19,WTDPNLKSSLADVLSIL [RPN1],2.98 ± 0.14
20,WTIPHKKWNDLKNKNFK [SIR2],3.38 ± 0.13
21,WTVLFRKHHKKGITEEV [RPL24A],2.1 ± 0.13
22,WVAPQESSHEQEEFVQF [ECM29],3.42 ± 0.13
23,WVFSYLRWFELKPKLYY [SIR3],1.96 ± 0.071
